Results published in US12569538B2, “DPEP-1 binding compositions and methods of use” (Arch Biopartners, Inc., priority 2015, dated 2026).

Tests used:
DPEP-1 = details: cited from earlier work
Human DPEP2 = target: T1, Human DPEP2 (Homo sapiens, UniProt Q9H4A9); assay: Binding of Alexa-488 conjugated peptide to Cos-1 cells transfected with human DPEP2
T1 construct: expressed in transfected cells; host or cells: Cos-1
Description: (§1) Cos-1 cells were transiently transfected with either […] of human DPEP-1, DPEP2, or DPEP3 gene using lipofectamine 2000 (Invitrogen) reagent in OptiMEM medium. 24 hours after transfection, DPEP-1, DPEP2, or DPEP3 expressing cells were re-seeded on collagen coated (neutralized) wells in 24 well plates and allowed to grow for 24 hours at 37º° C. 24 hours after seeding, media was removed and cells were washed with PBS. Cells were blocked with FBS/NBSA/Tween in PBS for 30 minutes on ice. Cells were then washed with PBS and incubated with LSALT or GFE-1, conjugated with Alexa-488 (green). After incubation, cells were washed with PBS and stained with DAPI for 5 minutes on ice. Cells were then washed with PBS and fixed using 4% paraformaldehyde and immunofluorescence microscopy was performed to assess binding. Representative photomicrographs are shown for each experimental condition (n=3) in FIG. 6A. Proteins from DPEP-1. DPEP2 and DPEP3 transfected cells were isolated after 48 hours using octyl-glucoside/RIPA lysis buffer and western blot analysis was performed to assess DPEP-1, DPEP2 and DPEP3 protein expression using specific antibodies; DPEP-1 antibody (Sigma), DPEP2 (Abcam) and DPEP3 (Santacruz). Blots were stripped and reprobed with an anti-P-actin.

[1] = tested on: B16-F10 murine melanoma cells; assay: B16-F10 melanoma lung metastasis, syngeneic model; format: in vivo, C57-BL6 mice; details: 1 mM peptide intravenous 5 minutes before 100,000 B16-F10 cells; lungs harvested after 2 weeks
Description: 8-10 weeks old C57-BL6 mice (Charles River) were injected intravenously with 100,000 B16-F10 murine melanoma cells 5 minutes after the injection of either LSALT or GFE-1 peptide (1 mM) via intravenous tail injection. Animals were sacrificed after 2 weeks and lungs were harvested. Tissues were processed for histology as described before and bematoxylin-eosin staining was performed to assess tumor burden.

Human DPEP-3 = target: T2, Human DPEP-3 (Homo sapiens, UniProt Q9H4B8); assay: Binding of Alexa-488 conjugated peptide to Cos-1 cells transfected with human DPEP3
T2 construct: expressed in transfected cells; host or cells: Cos-1
T2 sequence (Q9H4B8 36-463): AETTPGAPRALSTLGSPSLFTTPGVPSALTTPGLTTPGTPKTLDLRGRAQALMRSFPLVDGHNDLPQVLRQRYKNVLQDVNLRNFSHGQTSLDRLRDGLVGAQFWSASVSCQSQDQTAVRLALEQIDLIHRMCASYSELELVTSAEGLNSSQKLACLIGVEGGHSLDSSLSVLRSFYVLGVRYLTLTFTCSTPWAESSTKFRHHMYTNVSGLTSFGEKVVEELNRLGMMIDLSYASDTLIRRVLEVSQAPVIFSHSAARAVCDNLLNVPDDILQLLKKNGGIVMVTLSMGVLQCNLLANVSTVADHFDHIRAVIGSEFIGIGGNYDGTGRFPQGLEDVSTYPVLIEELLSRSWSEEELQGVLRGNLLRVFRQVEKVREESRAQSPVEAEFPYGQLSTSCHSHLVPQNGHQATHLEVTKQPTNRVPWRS
Description: as §1

rat DPEP-1 = target: T3, rat DPEP-1 (Rattus norvegicus, UniProt P31430); assay: Binding of Alexa-488 conjugated peptide to Cos-1 cells transfected with rat DPEP-1 (immunofluorescence); details: Cos-1 cells transiently transfected with rat DPEP-1 cDNA, 30 minutes on ice
T3 construct: expressed in transfected cells; host or cells: Cos-1
T3 sequence (P31430 17-384): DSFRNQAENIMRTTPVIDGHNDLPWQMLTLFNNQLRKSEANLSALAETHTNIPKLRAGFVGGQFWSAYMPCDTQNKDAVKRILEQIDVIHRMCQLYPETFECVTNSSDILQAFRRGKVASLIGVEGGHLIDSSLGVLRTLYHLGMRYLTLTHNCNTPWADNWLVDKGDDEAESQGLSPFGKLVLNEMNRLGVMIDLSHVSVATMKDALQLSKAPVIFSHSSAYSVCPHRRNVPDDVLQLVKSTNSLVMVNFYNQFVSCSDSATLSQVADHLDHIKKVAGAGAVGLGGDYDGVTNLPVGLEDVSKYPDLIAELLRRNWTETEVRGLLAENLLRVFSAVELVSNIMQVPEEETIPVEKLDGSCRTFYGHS
Description: (§2) Cos-1 cells were transiently transfected with either 3 or 5|ig of membrane dipeptidase (DPEP-1) cDNA corresponding to the rat (Shown in FIG. 5A) or human DPEP-1 (Shown in FIG. 5B) gene using lipofectamine 2000 (Invitrogen) reagent in OptiMEM medium 24 hours after transfection, DPEP-1 expressing cells were re-seeded on collagen coated (neutralized) wells in 24 well plates and allowed to grow for 24 hours at 37 °C. 24 hours after seeding, media was removed and cells were washed with PBS. Cells were blocked with FBS/NBSA/Tween in PBS for 30 minutes on ice. Cells were then washed with PBS and incubated with Alexa-488 (green) conjugated LSALT, GFE-1, control peptide or DPEP-1 antibody (1/100) (Sigma) on ice for 30 minutes. […] After incubation, cells were washed with PBS and treated with 10 mg/ml biotin transfer peptide (LSALT, GFE-1 or Control Peptide (KGAL)] for 10 minutes. Cells were then washed with PBS and biotin transfer was enabled by UV activation of the aryl azide groups for 15 minutes at 363 nm. Residual fluid was removed and monolayers were lysed either with octyl-glucoside/RIPA or 8M urea. Isolated supernatants were rotated with […] of neutr-avidin agarose beads at 4° C. for 24 hours. Beads were washed with corresponding buffers, boiled in Laemmli buffer and analyzed by western blot using a DPEP-1 specific antibody (Proteintech).

[2] = target: T4, human membrane dipeptidase (DPEP-1) (Homo sapiens, UniProt P16444); assay: Membrane dipeptidase enzyme activity assay, fluorimetric detection of D-Phe from Gly-D-Phe; format: biochemical; details: protein from human DPEP-1 transfected Cos-1 cells; Gly-D-Phe substrate, 37° C., 3 hours
T4 construct: expressed in transfected cells; host or cells: Cos-1 (protein lysate, octylglucoside)
T4 sequence (P16444 17-385): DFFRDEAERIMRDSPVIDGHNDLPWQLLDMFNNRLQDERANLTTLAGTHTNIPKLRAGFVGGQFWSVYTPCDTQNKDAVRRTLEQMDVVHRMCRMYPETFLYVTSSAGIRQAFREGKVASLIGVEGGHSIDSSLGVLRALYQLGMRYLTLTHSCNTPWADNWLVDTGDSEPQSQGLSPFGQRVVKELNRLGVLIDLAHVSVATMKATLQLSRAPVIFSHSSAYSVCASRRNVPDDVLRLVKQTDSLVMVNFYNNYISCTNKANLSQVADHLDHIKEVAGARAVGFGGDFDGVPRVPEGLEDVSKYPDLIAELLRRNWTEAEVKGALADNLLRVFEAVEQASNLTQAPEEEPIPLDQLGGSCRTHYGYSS
Description: Cos-1 cells were transiently transfected with […] of human membrane dipeptidase (DPEP-1) plasmid using lipofectamine 2000 (Invitrogen) reagent. 48 hours after transfection, media was removed and cells were washed with PBS. Proteins were isolated using octylglucoside in the absence of protease inhibitors. Membrane dipeptidase assay and the fluorimetric detection of D-Phe was performed exactly as described by Heywood and Hooper previously. In brief, proteins were first incubated with membrane dipeptidase substrate Gly-D-Phe either in the presence or absence of LSALT or GFE-1 peptide at 37° C. for 3 hours. The fluorescence signal generated from the conversion of D-Phe to […] in the presence of D-aminoacidoxidase and peroxidase was measured using a fluorescence plate reader.

[3] = tested on: neutrophil adhesion in the hepatic sinusoids; assay: Neutrophil adhesion in hepatic sinusoids after LPS, intravital microscopy; format: in vivo, LysMeGFP mice; details: for neutrophil adhesion in the hepatic sinusoids in the presence of LPS: 1 mM peptide intravenous 5 minutes after 0.5 mg/kg LPS intraperitoneal, liver imaged after 3 hours
Description: Six to ten week old LysMeGFP mice were injected with 1 mM dose of LSALT or GFE-1 peptides (intravenous) 5 minutes after the injection of 0.5 mg/kg of lipopolysaccharide (intraperitoneal). After 3 hours, animals were injected with ketamine and xylazine to provide general anesthesia. Fluorescently conjugated F4/80 and PECAM-1 antibodies were then administered via jugular vein cannulation and intravital spinning disk confocal microscopy was performed. The livers were imaged for an hour and the number of neutrophils were counted at different time points. Neutrophils which were stationary for >30 seconds in the liver sinusoids were counted as adherent cells. Data are representative of three independent experiments. An unpaired 2-tailed student's t-test was performed comparing LSALT, GFE-1 or control treated group against the LPS treated group (*p<0.05).

tumor cell line = assay: Tumor burden in livers or lungs of animals injected with a tumor cell line; format: in vivo
[4] = tested on: serum cytokines in response to LPS; assay: Plasma cytokine levels after LPS, Luminex Cytokine Arrays; format: in vivo, SCID mice; details: LPS 0.5 mg/kg intraperitoneal 5 minutes prior to intravenous peptide; plasma at 4 hours
Description: 6-8 weeks old SCID mice were given an intraperitoneal injection of LPS (0.5 mg/kg) 5 minutes prior to intravenous injection of LSALT peptide or a control peptide. 4 hours following injection of LPS, blood was collected by cardiac puncture and changes in plasma cytokine levels were assessed using Luminex Cytokine Arrays. Bar graphs show the levels of different inflammatory mediators released in the plasma in the presence or absence of LSALT peptide and control peptide.
6-8 weeks old SCID mice were given an intraperitoneal injection of LPS (0.5 mg/kg) 5 minutes prior to intravenous injection of LSALT peptide or a control peptide. 4 hours following injection of LPS, blood was collected by cardiac puncture and changes in plasma cytokine levels were assessed using Luminex Cytokine Arrays. Bar graphs show the level of the anti-inflammatory cytokine IL-10 released in the plasma in LSALT peptide or control peptide in two independent experiments.

[5] = target: T5, renal rat membrane dipeptidase (DPEP-1) (Rattus norvegicus, UniProt P31430); assay: Peptide binding to Cos-7 cells transfected with rat DPEP-1, immunofluorescence microscopy; details: rat DPEP-1 transfected Cos-7 cells; fluorescently conjugated peptide on ice 30 minutes
T5 construct: expressed in transfected cells; host or cells: Cos-7
T5 sequence (P31430 17-384): as the sequence (P31430 17-384) above
Description: Cos-7 cells were transiently transfected with […] of renal rat membrane dipeptidase (DPEP-1) plasmid using lipofectamine 2000 (Invitrogen) reagent. 48 hours after transfection, media was removed and cells were washed with PBS. Cells were incubated with LSALT conjugated with Alexa-488 (Green), GFE-1 peptide conjugated with Alexa-568 (Red) or control peptide conjugated with Alexa-488 (Green) on ice for 30 minutes. Cells were washed and fixed using 4% paraformaldehyde and immunofluorescence microscopy was performed to assess binding. Shown are representative photomicrographs of each experimental condition (n=2).

[6] = target: T5, renal rat membrane dipeptidase (DPEP-1); assay: Peptide binding to Cos-7 cells transfected with rat DPEP-1, flow cytometry; details: rat DPEP-1 transfected Cos-7 cells; Alexa-488 conjugated peptide on ice 30 minutes
Description: Cos-7 cells were transiently transfected with 5∧g of renal rat membrane dipeptidase (DPEP-1) plasmid using lipofectamine2000 (Invitrogen) reagent. 48 hours after transfection, cells were incubated with LSALT conjugated to Alexa-488 (green) on ice for 30 minutes. Cells were washed and flow cytometry was performed to assess binding Shown are single parameter histographs for each experimental condition (n=2).

human DPEP-1 = target: T6, human DPEP-1 (Homo sapiens, UniProt P16444); assay: Binding of Alexa-488 conjugated peptide to Cos-1 cells transfected with human DPEP-1 (immunofluorescence, biotin transfer); details: Cos-1 cells transiently transfected with human DPEP-1 cDNA, 30 minutes on ice
T6 construct: expressed in transfected cells; host or cells: Cos-1
T6 sequence (P16444 17-385): T4 sequence (P16444 17-385)
Description: as §2

T1 sequence (Q9H4A9 33-463): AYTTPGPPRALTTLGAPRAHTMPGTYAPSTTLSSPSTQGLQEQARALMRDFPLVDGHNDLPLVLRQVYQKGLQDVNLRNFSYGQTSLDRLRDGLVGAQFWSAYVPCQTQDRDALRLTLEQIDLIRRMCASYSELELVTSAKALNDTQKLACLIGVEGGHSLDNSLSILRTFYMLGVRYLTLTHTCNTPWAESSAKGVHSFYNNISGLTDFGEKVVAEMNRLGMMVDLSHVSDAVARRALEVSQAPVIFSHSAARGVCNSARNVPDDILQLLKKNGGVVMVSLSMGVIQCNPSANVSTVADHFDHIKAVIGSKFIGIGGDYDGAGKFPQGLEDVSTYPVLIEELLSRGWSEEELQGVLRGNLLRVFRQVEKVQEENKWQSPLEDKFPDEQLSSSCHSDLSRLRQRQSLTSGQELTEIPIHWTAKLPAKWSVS

Row | Sequence | DPEP-1 binding activity in lung microvasculature (DPEP-1) | binding to human DPEP2 in vitro (Human DPEP2) | melanoma-lung metastasis [1] | binding to human DPEP-3 in vitro (Human DPEP-3) | binding to rat DPEP-1 (rat DPEP-1) | inhibition of membrane dipeptidase enzyme activity [2] | neutrophil adhesion in the hepatic sinusoids in the presence of LPS [3] | neutrophil recruitment to the liver ([3]; mouse model of sepsis) | tumor burden in the livers or lungs (tumor cell line) | levels of serum cytokines (inflammatory mediators) in response to LPS [4] | production of the anti-inflammatory mediator IL-10 in response to LPS [4] | binding to Cos-7 cells with expression of DPEP-1 (immunofluorescence microscopy) [5] | binding to Cos-7 cells with expression of DPEP-1 (flow cytometry) [6] | binding to human DPEP-1 (human DPEP-1)
1 | CGFELETC (listed as Homo sapiens) [GFE-2] | having DPEP-1 binding activity | – | – | – | – | – | – | – | – | – | – | – | – | –
2 | LSALTPSPSWLKYKAL (listed as Homo sapiens) | – | do not Bind | Inhibits | do not Bind | Bonds | does not inhibit | inhibit neutrophil adhesion | reduced neutrophil recruitment | dramatically reduce tumor burden | attenuates the levels | increases the production | enhanced the binding | enhanced the binding | Bonds
3 | CGFECVRQCPERC (listed as Homo sapiens) [GFE-1, reference compound] | having DPEP-1 binding activity | do not Bind | – | do not Bind | – | – | inhibit neutrophil adhesion | – | – | – | – | enhanced the binding | – | –
